Series [1] has as its system 7HC-STAT3beta, Src-phosphorylated (pY705). The series can be described thus: EMSA with unlabelled hSIE competition. The conditions noted are these: not given in the material (Supporting Information not held). In general terms: Mobility shift assays separate free from complexed probe on a gel.
In series [2] the test system is wt STAT3beta, Src-phosphorylated (pY705). Kind of series: EMSA with unlabelled hSIE competition. The conditions noted are these: not given in the material (Supporting Information not held).

As usually defined, the Kd is the constant that tells how readily two partners part at equilibrium. Low values mean tighter binding, high ones weaker binding. In the case of “hSIE (high-affinity sis-inducible element) probe”, the figures for the Kd in series [1] and in series [2] were 6.8 nM and 6.3 nM, respectively.

The values are drawn from publication PMC3197789.
